# Results from US7662583B2, “Bioreactor containing cells expressing glycosyltransferase nucleic acids isolatable from Arabidopsis” (The University of York, priority 2003, dated 2010).
# Key:
# [1] = Solubility of quercetin under buffer conditions used; assay type: physicochemical; conditions: buffer conditions used in the fermenter
# Method: In order to explore the potential of the whole-cell biocatalysts for large-scale production of glucosides in the absence of added UDP-glucose, transformed bacterial cells were cultured in a fermenter. This process enabled conditions to be controlled tightly throughout the production cycle and a direct comparison to be made of the efficiency of conversion of whole-cell UGT biocatalysis in a simple culture flask and an optimised fermenter system. UGT73B3 was chosen for the analysis, since preliminary experiments (Table 2) had shown formation of a single product, the 3-O-glucoside, at levels of 8.96 μg/ml following 24 h incubation. […] The Figure also illustrates the final level of glucoside was much higher than the soluble aglycone at time 0 h.
# [2] = Whole-cell biocatalyst assay, E. coli expressing UGT in culture medium; assay type: cell-based; conditions: E. coli, 2x YT medium, 0.1 mM IPTG, 0.1 mM quercetin, 24 h, no added UDP-glucose
# Method: FIG. 14 Whole-cell biocatalyst assay using UGT71C1. E. coli cells expressing recombinant were used in the biocatalyst assay. After incubation with 0.1 mM quercetin and 0.1 mM IPTG, cells were collected by centrifugation, extracted with 80% methanol and both the cell extracts (pellet) and culture medium (supernatant) were analysed using HPLC. (A) Changes in the combined amounts of aglycone/glucoside over a time-course of 0-48 h. (B) Changes in the level of different glucosides and aglycone in the culture medium over the same time-course.
# Using the foundation established in the preceding example, we went on to investigate the potential of E. coli expressing plant UGTs as whole-cell biocatalysts to synthesise glucosides of quercetin. In the first instance, we used E. coli grown in 75 ml of standard culture medium. […] Table 2 describes results in which 7 different UGTs are expressed in E. coli and the identity and quantity of different glucosides recovered in the medium were analysed by HPLC. […] There was considerable variation in the level of different glucosides synthesised by the cells, although even under these non-optimised conditions, each of the four monoglucosides and two di-O-glucosides could be formed.
# [3] = UGT enzyme reaction with quercetin (recombinant UGTs, HPLC); assay type: biochemical, Arabidopsis; conditions: 0.5 mM quercetin, 5 mM UDP-glucose, 30° C.
# Summary of the method: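 Recombinant Arabidopsis UGTs (2 μg) incubated with 0.5 mM quercetin and 5 mM UDP-glucose in 100 mM Tris-HCl pH 7.0 at 30 °C for 1 h. Quercetin glucosides separated from aglycone by reverse-phase C18 HPLC (acetonitrile gradient, 0.1% TFA), detected at 370 nm.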
# [4] = Whole-cell bioreactor assay in fermentor system; assay type: cell-based, E. coli
# Method: A 6 L glass autoclavable fermentor system (Applikon Biotechnology Ltd.) was used for large-scale analysis of UGT whole-cell biocatalysts. E. coli BL21 overnight culture (40 ml) expressing UGT was transferred into the fermentor system containing 2 L of LB medium previously equilibrated at 30° C., pH 7.4. The dissolved O2 level was maintained at 95% for 1 h and was decreased to 60% throughout the remaining process. When the culture reached an optical density at 0.2, the temperature was lowered to 20° C. 0.1 mM of isopropyl-1-thio-β-D-galactopyranoside and 2 g of quercetin were added after the bacterial culture reached an optical density at 0.6. Samples were harvested at intervals and the bacterial cells were removed by centrifugation. The resulting supernatant fractions (culture medium) were analysed with HPLC.
# In order to explore the potential of the whole-cell biocatalysts for large-scale production of glucosides in the absence of added UDP-glucose, transformed bacterial cells were cultured in a fermenter. This process enabled conditions to be controlled tightly throughout the production cycle and a direct comparison to be made of the efficiency of conversion of whole-cell UGT biocatalysis in a simple culture flask and an optimised fermenter system. […]
molecule,measurement,setting,value
"O=c1c(O)c(-c2ccc(O)c(O)c2)oc2cc(O)cc(O)c12 [Quercetin, quercetin]",solubility,[1],relatively insoluble
"UGT73B3: Arabidopsis recombinant glycosyltransferase (protein, UniProt Q8W491 1-481, looked up) UDP-glycosyltransferase 73B3: MSSDPHRKLHVVFFPFMAYGHMIPTLDMAKLFSSRGAKSTILTTPLNSKIFQKPIERFKNLNPSFEIDIQIFDFPCVDLGLPEGCENVDFFTSNNNDDRQYLTLKFFKSTRFFKDQLEKLLETTRPDCLIADMFFPWATEAAEKFNVPRLVFHGTGYFSLCSEYCIRVHNPQNIVASRYEPFVIPDLPGNIVITQEQIADRDEESEMGKFMIEVKESDVKSSGVIVNSFYELEPDYADFYKSVVLKRAWHIGPLSVYNRGFEEKAERGKKASINEVECLKWLDSKKPDSVIYISFGSVACFKNEQLFEIAAGLETSGANFIWVVRKNIGIEKEEWLPEGFEERVKGKGMIIRGWAPQVLILDHQATCGFVTHCGWNSLLEGVAAGLPMVTWPVAAEQFYNEKLVTQVLRTGVSVGAKKNVRTTGDFISREKVVKAVREVLVGEEADERRERAKKLAEMAKAAVEGGSSFNDLNSFIEEFTS",Culture medium (μg/ml in supernatant) 3-O-glc,[2],8.96 µg/mL
same,Specific activity (nkat/mg protein) 3-O-glc,[3]; quercetin glucosylated at 3-OH,1.57 nkat/mg protein
same,Specific activity (nkat/mg protein) 3′-O-glc,[3]; quercetin glucosylated at 3′-OH,— (Activity lower than 0.02 nkat/mg protein has been considered as trace activity and is not shown in the Table.)
same,Specific activity (nkat/mg protein) 4′-O-glc,[3]; quercetin glucosylated at 4′-OH,— (Activity lower than 0.02 nkat/mg protein has been considered as trace activity and is not shown in the Table.)
same,Specific activity (nkat/mg protein) 7-O-glc,[3]; quercetin glucosylated at 7-OH,— (Activity lower than 0.02 nkat/mg protein has been considered as trace activity and is not shown in the Table.)
same,"yield of 3-O-glucoside, fermenter versus culture flask",[4]; 99.3 μg/ml at 20 h versus 8.96 μg/ml at 24 h,10 fold
same,yield of 3-O-glucoside in the culture,"[4]; fermenter system, 20 h",99.3 µg/mL
